Measured values published in paper doi:10.1101/2022.04.26.489605 (bioRxiv, 2022).
Where “and” joins values, the source holds several entries; their conditions need not be identical. Identical values can stand only once.

Legend:
[1] = target: human leucine-rich repeat kinase 2 (LRRK2), full-length, recombinant (human) (UniProt Q5S007); test: cryo-EM structure
[2] = target: human leucine-rich repeat kinase 2 (LRRK2), full-length, recombinant (human, UniProt Q5S007 1-2527, R50H | S1647T | M2397T); test: cryo-EM structure
Sequence of human leucine-rich repeat kinase 2 (LRRK2), full-length, recombinant (Q5S007 whole entry R50H/S1647T/M2397T): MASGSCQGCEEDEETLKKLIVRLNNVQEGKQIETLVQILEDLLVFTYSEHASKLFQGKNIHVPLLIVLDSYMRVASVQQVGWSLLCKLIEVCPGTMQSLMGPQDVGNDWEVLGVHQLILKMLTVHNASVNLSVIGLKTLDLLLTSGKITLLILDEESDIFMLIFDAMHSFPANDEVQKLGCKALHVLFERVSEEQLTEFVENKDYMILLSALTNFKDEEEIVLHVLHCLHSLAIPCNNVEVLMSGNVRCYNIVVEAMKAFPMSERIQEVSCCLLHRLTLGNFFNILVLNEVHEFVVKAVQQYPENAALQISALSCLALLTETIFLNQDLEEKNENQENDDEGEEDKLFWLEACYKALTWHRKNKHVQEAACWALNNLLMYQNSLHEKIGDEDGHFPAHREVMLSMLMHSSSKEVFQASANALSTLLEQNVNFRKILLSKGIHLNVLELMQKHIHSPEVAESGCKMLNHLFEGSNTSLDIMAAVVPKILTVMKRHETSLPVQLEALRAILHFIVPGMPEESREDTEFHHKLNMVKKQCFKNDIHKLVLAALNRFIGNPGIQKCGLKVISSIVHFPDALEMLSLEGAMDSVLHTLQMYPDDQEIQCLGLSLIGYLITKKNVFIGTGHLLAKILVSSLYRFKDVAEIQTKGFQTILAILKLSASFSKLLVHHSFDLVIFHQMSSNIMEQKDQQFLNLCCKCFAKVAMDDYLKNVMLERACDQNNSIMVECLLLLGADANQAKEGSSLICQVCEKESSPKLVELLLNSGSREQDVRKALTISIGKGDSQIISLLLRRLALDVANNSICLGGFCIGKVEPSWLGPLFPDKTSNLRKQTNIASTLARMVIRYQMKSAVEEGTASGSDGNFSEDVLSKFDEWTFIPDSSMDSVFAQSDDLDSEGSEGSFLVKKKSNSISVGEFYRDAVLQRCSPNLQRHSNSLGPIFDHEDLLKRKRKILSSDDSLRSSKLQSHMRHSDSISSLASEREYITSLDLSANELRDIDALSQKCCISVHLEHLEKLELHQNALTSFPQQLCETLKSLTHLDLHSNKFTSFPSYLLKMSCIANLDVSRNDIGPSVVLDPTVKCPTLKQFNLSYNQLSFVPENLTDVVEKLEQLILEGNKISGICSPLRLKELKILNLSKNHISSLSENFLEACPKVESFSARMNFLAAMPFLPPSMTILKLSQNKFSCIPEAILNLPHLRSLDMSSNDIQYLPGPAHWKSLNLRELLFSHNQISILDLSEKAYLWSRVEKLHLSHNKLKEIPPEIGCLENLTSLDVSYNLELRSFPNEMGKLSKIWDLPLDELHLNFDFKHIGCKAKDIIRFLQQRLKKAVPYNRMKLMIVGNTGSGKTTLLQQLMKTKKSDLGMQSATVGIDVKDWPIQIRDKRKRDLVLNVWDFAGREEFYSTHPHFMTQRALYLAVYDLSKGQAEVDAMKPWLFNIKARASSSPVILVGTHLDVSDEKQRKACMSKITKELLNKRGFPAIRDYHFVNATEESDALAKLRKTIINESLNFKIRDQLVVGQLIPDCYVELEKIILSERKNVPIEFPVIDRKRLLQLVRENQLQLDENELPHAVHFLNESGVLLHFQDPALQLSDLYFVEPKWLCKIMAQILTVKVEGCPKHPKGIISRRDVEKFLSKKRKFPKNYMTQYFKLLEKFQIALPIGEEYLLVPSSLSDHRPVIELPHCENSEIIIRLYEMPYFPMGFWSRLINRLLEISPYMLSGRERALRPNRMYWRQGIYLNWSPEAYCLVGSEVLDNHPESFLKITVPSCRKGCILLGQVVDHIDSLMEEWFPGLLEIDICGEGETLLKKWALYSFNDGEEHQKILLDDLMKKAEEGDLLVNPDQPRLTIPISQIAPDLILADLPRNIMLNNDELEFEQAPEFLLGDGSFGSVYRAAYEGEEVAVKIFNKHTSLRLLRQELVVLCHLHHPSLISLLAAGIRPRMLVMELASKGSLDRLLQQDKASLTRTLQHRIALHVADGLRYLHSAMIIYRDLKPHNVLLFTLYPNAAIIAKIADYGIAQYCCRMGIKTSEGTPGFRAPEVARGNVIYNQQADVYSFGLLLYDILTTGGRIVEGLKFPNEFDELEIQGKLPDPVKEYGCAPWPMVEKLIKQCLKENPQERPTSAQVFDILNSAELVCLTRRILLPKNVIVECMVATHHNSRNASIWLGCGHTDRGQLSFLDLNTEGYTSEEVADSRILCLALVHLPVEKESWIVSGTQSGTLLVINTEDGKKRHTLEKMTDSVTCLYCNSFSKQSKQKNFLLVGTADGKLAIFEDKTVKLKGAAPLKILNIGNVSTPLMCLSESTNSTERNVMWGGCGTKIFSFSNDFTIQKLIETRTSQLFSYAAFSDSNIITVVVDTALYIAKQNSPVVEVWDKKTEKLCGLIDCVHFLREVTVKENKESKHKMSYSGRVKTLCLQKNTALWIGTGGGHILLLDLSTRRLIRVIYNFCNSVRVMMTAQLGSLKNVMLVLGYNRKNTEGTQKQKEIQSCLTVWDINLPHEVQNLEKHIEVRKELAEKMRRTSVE

Molecule | stoichiometry N (LRRK2 protomers) [1] | stoichiometry N [2] [Rab29 per LRRK2]
human leucine-rich repeat kinase 2 (LRRK2), full-length, recombinant, Q5S007 1-2527 | 2 and 4 | 
Rab29 (residues 1-177) Q67L/T71A/S72A, GST tag removed (domain or fragment, human, UniProt O14966 1-177, looked up) MGSRDHLFKVLVVGDAAVGKTSLVQRYSQDSFSKHYKSTVGVDFALKVLQWSDYEIVRLQLWDIAGLERFAAMTRLYYRDASACVIMFDVTNATTFSNSQRWKQDLDSKLTLPNGEPVPCLLLANKCDLSPWAVSRDQIDRFSKENGFTGWTETSVKENKNINEAMRVLIEKMMRNS |  | 1
